Numbered stars: 1 amine (or outer) side, 2 acyl side, 3 side chain; on linkers, the order of the positions; unused ones are H or OH. Square brackets hold non-standard residues; d marks the D form. Primed or numbered codes have the meaning given here. Ends that are not written are not given here. * marks the point of attachment. Trp(For)″ = Trp(CHO), O=Cn1cc(C[C@H](N[*:1])C(=O)[*:2])c2ccccc21; Phe(3-CF3) = N[C@@H](Cc1cccc(C(F)(F)F)c1)C(=O)O; Phe(3,4-F2) = N[C@@H](Cc1ccc(F)c(F)c1)C(=O)O; Phe(4-CN) = N#Cc1ccc(C[C@H](N)C(=O)O)cc1; Phe(4-Cl) = N[C@@H](Cc1ccc(Cl)cc1)C(=O)O; Phe(3-F) = N[C@@H](Cc1cccc(F)c1)C(=O)O; Phe(4-F) = N[C@@H](Cc1ccc(F)cc1)C(=O)O; Phe(2-F) = N[C@@H](Cc1ccccc1F)C(=O)O; Arg(Me) = CNC(=N)NCCC[C@H](N)C(=O)O; Fmoc = O=C(OCC1c2ccccc2-c2ccccc21)*; 2Pal = N[C@@H](Cc1ccccn1)C(=O)O; 3Pal = N[C@@H](Cc1cccnc1)C(=O)O; Cha = N[C@@H](CC1CCCCC1)C(=O)O; Arg(Et)′ = not defined here; Dab = NCC[C@H](N)C(=O)O; azaGly = NNC(=O)O
Target: T1, human OT7T175 (metastin receptor) (human, UniProt Q969F8 1-398)
T1 construct: expressed on CHO cells (hOT7T175-expressed CHO cells; hOT7T175/CHO); also called hOT7T175; h0T7T175
Experiment: FMAT competition with Cy-5-labeled metastin (40-54), hOT7T175-expressed CHO cells
Protocol: h0T7T175-Expressed CHO cells were cultured in MEM-α medium (nucleic acid-free) containing 10% dialyzed serum. The medium was removed and the adherent cells were washed with PBS. Then, PBS containing 5 mM EDTA was added and the cells were scraped from a flask with a cell scraper. […] To each well of a 96-Well Black Clear Bottom Plate (Applied Biosystems, Inc.), 10 μL of assay buffer containing 1% dimethylsulfoxide was added to examine total binding, 10 μL of 10 μM non-labeled peptide (having the same amino acid sequence as that of the labeled one) solution diluted with assay buffer to examine non-specific binding, and 10 μL of a test compound diluted with assay buffer to examine the binding inhibition activity of the test compound, respectively. Furthermore, 90 μL each of the cell suspension was dispensed to each well. […] The specific binding is a value obtained by subtracting the non-specific binding from the total binding.

T1 sequence (Q969F8 whole entry L364H): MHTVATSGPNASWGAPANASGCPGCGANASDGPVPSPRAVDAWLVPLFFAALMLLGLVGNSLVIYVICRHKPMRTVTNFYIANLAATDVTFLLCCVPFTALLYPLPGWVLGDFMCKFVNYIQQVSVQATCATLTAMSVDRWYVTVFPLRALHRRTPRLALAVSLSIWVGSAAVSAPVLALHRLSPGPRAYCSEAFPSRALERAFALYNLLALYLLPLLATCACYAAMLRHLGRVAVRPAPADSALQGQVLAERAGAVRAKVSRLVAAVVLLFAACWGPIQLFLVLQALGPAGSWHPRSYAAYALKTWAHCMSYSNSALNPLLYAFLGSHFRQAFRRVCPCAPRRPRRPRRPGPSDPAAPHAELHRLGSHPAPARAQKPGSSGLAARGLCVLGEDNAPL

[dY]NWNSFGL[Arg(Me)]F-NH2 (also: Gly7-Leu8 bond reduced (CH2NH)) [Compound No. 307: [7Ψ8,CH2NH,D-Tyr1,Arg(Me)9]MS10]
IC50: 64 nM

YNWNSFGLR[Phe(4-Cl)]-NH2 [Compound No. 130: [Phe(4Cl)10]MS10]
IC50: 42 nM

{D‑Glucuronyl}-NSF[azaGly]L[Arg(Me)]F-NH2 [Compound No. 328: des(1-3)-D-Glucuronyl-[AzaGly7,Arg(Me)9]MS10]
IC50: 470 nM

B1: Compound No. 285: [D-Tyr1,Pya(2) 3,AzaGly7,Arg(Me)9]MS10 (peptide)
peptide: [dY]N[2Pal]NSF[azaGly]L[Arg(Me)]F-NH2
modifications: N-terminus assumed
SMILES: CNC(=N)NCCC[C@H](NC(=O)[C@H](CC(C)C)NC(=O)NNC(=O)[C@H](Cc1ccccc1)NC(=O)[C@H](CO)NC(=O)[C@H](CC(N)=O)NC(=O)[C@H](Cc1ccccn1)NC(=O)[C@H](CC(N)=O)NC(=O)[C@H](N)Cc1ccc(O)cc1)C(=O)N[C@@H](Cc1ccccc1)C(N)=O
IC50: 40 nM

YNWNSFGL[Arg(Me)]F-NH2 [Compound No. 82: [Arg(Me)9]MS10]
IC50: 4.1 nM

[dY]NWNSFGL[Arg(Et)′]F-NH2 [Compound No. 192: [D-Tyr1,Arg(Et)9]MS10]
IC50: 530 nM

[dY]N[Cha]NS[Cha]GL[Arg(Me)]F-NH2 [Compound No. 181: [D-Tyr1,Cha3,6,Arg(Me)9]MS10]
IC50: 19 nM

[dY][dN][Cha]NSF[azaGly]L[Arg(Me)]F-NH2 [Compound No. 283: [D-Tyr1,D-Asn2,Cha3,AzaGly7,Arg(Me)9]MS10]
IC50: 0.69 nM

YNWNSFGLR[Phe(3-CF3)]-NH2 [Compound No. 200: [Phe(3CF3)10]MS10]
IC50: 340 nM

YNWNSFGLR[Phe(3,4-F2)]-NH2 [Compound No. 198: [Phe(3,4F2)10]MS10]
IC50: 170 nM

[dY]NWNSF[azaGly]L[Arg(Me)][Phe(4-F)]-NH2 [Compound No. 318: [D-Tyr1,AzaGly7,Arg(Me)9,Phe(4F)10]MS10]
IC50: 0.99 nM

[dY]N[dW]NSFGL[Arg(Me)]F-NH2 [Compound No. 142: [D-Tyr1,D-Trp3,Arg(Me)9]MS10]
IC50: 26 nM

[dW]NSFGL[Arg(Me)]F-NH2 [Compound No. 223: des(1-2)-[D-Trp3,Arg(Me)9]MS10]
IC50: 760 nM

YNWNSFGLRX (Pya(3)10; C-terminal amide) [Compound No. 60: [Pya(3)10]MS10]
IC50: 170 nM

B2: Compound No. 275: des(1-2)-Acetyl-[Arg3,AzaGly7,Arg(Me)9]MS10 (peptide)
peptide: Ac-RNSF[azaGly]L[Arg(Me)]F-NH2
SMILES: CNC(=N)NCCC[C@H](NC(=O)[C@H](CC(C)C)NC(=O)NNC(=O)[C@H](Cc1ccccc1)NC(=O)[C@H](CO)NC(=O)[C@H](CC(N)=O)NC(=O)[C@H](CCCNC(=N)N)NC(C)=O)C(=O)N[C@@H](Cc1ccccc1)C(N)=O
IC50: 410 nM

B3: Compound No. 276: des(1-2)-Acetyl-[Thr3,AzaGly7,Arg(Me)9]MS10 (peptide)
peptide: Ac-TNSF[azaGly]L[Arg(Me)]F-NH2
SMILES: CNC(=N)NCCC[C@H](NC(=O)[C@H](CC(C)C)NC(=O)NNC(=O)[C@H](Cc1ccccc1)NC(=O)[C@H](CO)NC(=O)[C@H](CC(N)=O)NC(=O)[C@@H](NC(C)=O)[C@@H](C)O)C(=O)N[C@@H](Cc1ccccc1)C(N)=O
IC50: 480 nM

YNWNSFGL[Dab]F-NH2 [Compound No. 313: [Dab9]MS10]
IC50: 690 nM

YNWNYFGLRF-NH2 [Compound No. 23: [Tyr5]MS10]
IC50: 400 nM

YNWNSYGLRF-NH2 [Compound No. 150: [Tyr6]MS10]
IC50: 320 nM

[dY]NTNSF[azaGly]L[Arg(Me)]F-NH2 [Compound No. 221: [D-Tyr1,Thr3,AzaGly7,Arg(Me)9]MS10]
IC50: 95 nM

YNSNSFGLRF-NH2 [Compound No. 69: [Ser3]MS10]
IC50: 83 nM

ANWNSFGLRF-NH2 [Compound No. 72: [Ala1]MS10]
IC50: 540 nM

YNDNSFGLRF-NH2 [Compound No. 70: [Asp3]MS10]
IC50: 200 nM

YNLNSFGLRF-NH2 [Compound No. 68: [Leu3]MS10]
IC50: 7.7 nM

YDWNSFGLRF-NH2 [Compound No. 57: [Asp2]MS10]
IC50: 100 nM

YLWNSFGLRF-NH2 [Compound No. 59: [Leu2]MS10]
IC50: 340 nM

LNWNSFGLRF-NH2 [Compound No. 73: [Leu1]MS10]
IC50: 220 nM

YNWNSFGVRF-NH2 [Compound No. 107: [Val8]MS10]
IC50: 120 nM

YNANSFGLRF-NH2 [Compound No. 67: [Ala3]MS10]
IC50: 27 nM

YYWNSFGLRF-NH2 [Compound No. 58: [Tyr2]MS10]
IC50: 16 nM

[dY]NSNSF[azaGly]L[Arg(Me)]F-NH2 [Compound No. 191: [D-Tyr1,Ser3,AzaGly7,Arg(Me)9]MS10]
IC50: 300 nM

YNWNSFGLR[Trp(For)″]-NH2 (also called [Trp(CHO)10]MS10) [Compound No. 186: [Trp(For)10]MS10]
IC50: 460 nM

YNWNSFGLKF-NH2 [Compound No. 44: [Lys9]MS10]
IC50: 190 nM

[dY]N[dA]NSF[azaGly]L[Arg(Me)]F-NH2 [Compound No. 252: [D-Tyr1,D-Ala3,AzaGly7,Arg(Me)9]MS10]
IC50: 580 nM

YNKNSFGLRF-NH2 [Compound No. 71: [Lys3]MS10]
IC50: 66 nM

[dY]NPNSF[azaGly]L[Arg(Me)]F-NH2 [Compound No. 253: [D-Tyr1,Pro3,AzaGly7,Arg(Me)9]MS10]
IC50: 27 nM

NWNSFGLRF-NH2 (also called human metastin 9 (46-54)) [Compound No. 4: des(1)-MS10]
IC50: 260 nM

[dY]SNSF[azaGly]L[Arg(Me)]F-NH2 [Compound No. 239: des(1)-[D-Tyr2,Ser3,AzaGly7,Arg(Me)9]MS10]
IC50: 120 nM

[dY]TNSFGL[Arg(Me)]F-NH2 [Compound No. 227: des(1)-[D-Tyr2,Thr3,Arg(Me)9]MS10]
IC50: 48 nM

[dY]SNSFGL[Arg(Me)]F-NH2 [Compound No. 226: des(1)-[D-Tyr2,Ser3,Arg(Me)9]MS10]
IC50: 100 nM

[dN][dW]NSFGL[Arg(Me)]F-NH2 [Compound No. 225: des(1)-[D-Asn2,D-Trp3,Arg(Me)9]MS10]
IC50: 410 nM

[dY]INSF[azaGly]L[Arg(Me)]F-NH2 [Compound No. 240: des(1)-[D-Tyr2,Ile3,AzaGly7,Arg(Me)9]MS10]
IC50: 17 nM

[dY]NWNSFGL[Arg(Me)]F-NH2 (also: Phe6-Gly7 bond reduced (CH2NH)) [Compound No. 308: [6Ψ7, CH2NH,D-Tyr1,Arg(Me)9]MS10]
IC50: 350 nM

B4: Compound No. 251: [D-Tyr1,Pya(3) 3,AzaGly7,Arg(Me)9]MS10 (peptide)
peptide: [dY]N[3Pal]NSF[azaGly]L[Arg(Me)]F-NH2
modifications: N-terminus assumed
SMILES: CNC(=N)NCCC[C@H](NC(=O)[C@H](CC(C)C)NC(=O)NNC(=O)[C@H](Cc1ccccc1)NC(=O)[C@H](CO)NC(=O)[C@H](CC(N)=O)NC(=O)[C@H](Cc1cccnc1)NC(=O)[C@H](CC(N)=O)NC(=O)[C@H](N)Cc1ccc(O)cc1)C(=O)N[C@@H](Cc1ccccc1)C(N)=O
IC50: 87 nM

YNWNSFGLR[Phe(3-F)]-NH2 [Compound No. 197: [Phe(3F)10]MS10]
IC50: 170 nM

YNWNSFGLR[Phe(4-F)]-NH2 [Compound No. 61: [Phe(4F)10]MS10]
IC50: 13 nM

YNWNSF[azaGly]L[Arg(Me)]F-NH2 (also: Tyr1-Asn2 bond reduced (CH2NH)) [Compound No. 299: [1Ψ2,CH2NH,AzaGly7,Arg(Me)9]-MS10]
IC50: 1.2 nM

B5: Compound No. 145: des(1-2)-Fmoc-[Arg(Me)9]MS10 (peptide)
peptide: Fmoc-WNSFGL[Arg(Me)]F-NH2
SMILES: CNC(=N)NCCC[C@H](NC(=O)[C@H](CC(C)C)NC(=O)CNC(=O)[C@H](Cc1ccccc1)NC(=O)[C@H](CO)NC(=O)[C@H](CC(N)=O)NC(=O)[C@H](Cc1c[nH]c2ccccc12)NC(=O)OCC1c2ccccc2-c2ccccc21)C(=O)N[C@@H](Cc1ccccc1)C(N)=O
IC50: 120 nM

YNWNSFGLR(Et)F-NH2 [Compound No. 220: [Arg(Et)9]MS10]
IC50: 330 nM

[dY]N[dW]NSF[azaGly]LR(Me)F-NH2 [Compound No. 236: (D-Tyr1,D-Trp3,AzaGly7,Arg(Me)9]MS10]
IC50: 42 nM

YNWNSFGLR[Phe(4-CN)]-NH2 [Compound No. 77: [Phe(4CN)10]MS10]
IC50: 7.4 nM

YNWNSFGLR[Phe(2-F)]-NH2 [Compound No. 19: [Phe(2F)10]MS10]
IC50: 8.6 nM
